Literature values as cited in PMC4746476.

Target: CCL21 (Homo sapiens) (UniProt O00585)
UniProt O00585, sequence (O00585 24-134): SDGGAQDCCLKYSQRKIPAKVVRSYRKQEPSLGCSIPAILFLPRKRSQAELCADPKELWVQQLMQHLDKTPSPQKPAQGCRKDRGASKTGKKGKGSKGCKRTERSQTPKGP

- Kd: 10 nM
Substance: CCR7 (from UniProt P32248)
